Laboratory results: article PMC9104182

Biological target: photoconvertible fluorescent protein DendFP (Dendronephthya sp)
Assay: crystal structure; native DendFP crystals, hanging drop at 22 °C, 100 mM Tris-HCl pH 7.5, 0.2 M MgCl2, 20% PEG4000; eight molecules (two tetramers) in the asymmetric unit; interfaces analysed with PISA

stoichiometry N: 4
Substance: photoconvertible fluorescent protein DendFP (natural protein)
